# Results reported in PMC3108429.
# Legend:
# [1] = molecular target: taxol-stabilized microtubules; assay: bead binding to microtubules counted by DIC microscopy
# [2] = molecular target: dynamic microtubules grown from GMPCPP-stabilized microtubule seeds (bovine); assay: constant-force laser trap bead motility assay
Substance,microtubule-bound beads per field (beads per field) [1],mean attachment lifetime at 1 pN tension [2] [min],mean attachment lifetime at 5 pN tension [2] [min]
Dsn1-HIS-FLAG kinetochore particles from the ndc80-1 mutant strain (from UniProt P40568 1-576; P40460 1-691) (complex),2,–,–
Dsn1-HIS-FLAG kinetochore particles from wild-type cells (from UniProt P40568 1-576) (complex),22,21,50
Dsn1-HIS-FLAG kinetochore particles from the spc105-15 mutant strain (from UniProt P40568 1-576; P53148 1-917) (complex),4,–,–
Dsn1-HIS-FLAG kinetochore particles from the dad1-1 mutant strain (from UniProt P40568 1-576; Q12248 1-94) (complex),18,–,–
